B1: Dad4 (natural protein, budding yeast, UniProt P69851 1-72, looked up)
chain: MENPHEQVQANILSRIIGNVKRLNESVAILNQELVTINNRNKNLEIMGAICDNYHSSVQFNLEATNNKKPPL
notes: Dad4, subunit of the budding yeast Dam1 complex; Subunit inside the recombinant 10-subunit complex; source: expressed and purified as part of the Dam1 complex as described [3]

Columns and labels:
Ask1 = target: T1, Ask1 (budding yeast, UniProt P35734 1-292); assay: cross-linking; EDC with Sulfo-NHS, Dam1 complex assembled on taxol-stabilized microtubules in BRB80, pellet washed, room temperature 1 h, digested in solution, mass spectrometry; conditions: both partners purified
T1 construct: Ask1, subunit of the budding yeast Dam1 complex; Subunit inside the recombinant 10-subunit complex; source: expressed and purified as part of the Dam1 complex as described [3]
T1 sequence (looked up): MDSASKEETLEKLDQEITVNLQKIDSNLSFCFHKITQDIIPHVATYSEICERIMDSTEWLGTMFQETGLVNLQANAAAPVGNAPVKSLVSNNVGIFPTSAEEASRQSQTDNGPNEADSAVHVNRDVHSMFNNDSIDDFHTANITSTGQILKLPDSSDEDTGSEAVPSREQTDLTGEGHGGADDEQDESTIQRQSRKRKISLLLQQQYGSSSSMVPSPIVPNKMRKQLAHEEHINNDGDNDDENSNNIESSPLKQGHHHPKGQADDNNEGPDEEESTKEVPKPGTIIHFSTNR

Dam1 = target: T2, Dam1 (budding yeast, UniProt P53267 1-343); assay: cross-linking; BS3, Dam1 complex at 0.3 mg/ml in BRB80, room temperature 40-60 min, digested in solution, mass spectrometry; some links may be between oligomerizing complexes; conditions: both partners purified
T2 construct: Dam1, subunit of the budding yeast Dam1 complex; Subunit inside the recombinant 10-subunit complex; also called Dam1 subunit; source: expressed and purified as part of the Dam1 complex as described [3]
T2 sequence (looked up): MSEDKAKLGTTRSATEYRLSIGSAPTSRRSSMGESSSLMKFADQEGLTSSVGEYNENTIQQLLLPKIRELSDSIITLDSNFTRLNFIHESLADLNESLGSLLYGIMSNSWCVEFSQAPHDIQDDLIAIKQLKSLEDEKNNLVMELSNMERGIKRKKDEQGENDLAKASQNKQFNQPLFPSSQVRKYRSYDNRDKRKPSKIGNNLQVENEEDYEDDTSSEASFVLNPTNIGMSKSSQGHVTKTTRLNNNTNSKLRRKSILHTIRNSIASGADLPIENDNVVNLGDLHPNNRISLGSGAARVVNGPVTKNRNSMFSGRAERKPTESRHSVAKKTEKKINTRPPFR

Spc34 = target: T3, Spc34 (budding yeast, UniProt P36131 1-295); assay: as above; conditions: both partners purified
T3 construct: Spc34, subunit of the budding yeast Dam1 complex; Subunit inside the recombinant 10-subunit complex; source: expressed and purified as part of the Dam1 complex as described [3]
T3 sequence (looked up): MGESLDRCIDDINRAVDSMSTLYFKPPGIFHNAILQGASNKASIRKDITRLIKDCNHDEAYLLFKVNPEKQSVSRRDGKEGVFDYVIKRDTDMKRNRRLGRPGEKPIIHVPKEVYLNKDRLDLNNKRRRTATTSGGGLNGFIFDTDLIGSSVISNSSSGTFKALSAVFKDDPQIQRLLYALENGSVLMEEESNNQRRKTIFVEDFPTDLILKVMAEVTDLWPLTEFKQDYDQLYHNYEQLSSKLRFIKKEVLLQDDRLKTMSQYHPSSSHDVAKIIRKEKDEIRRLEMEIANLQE

Spc19 = target: T4, Spc19 (budding yeast, UniProt Q03954 1-165); assay: as above; conditions: both partners purified
T4 construct: Spc19, subunit of the budding yeast Dam1 complex; Subunit inside the recombinant 10-subunit complex; also called Sp19; source: expressed and purified as part of the Dam1 complex as described [3]
T4 sequence (looked up): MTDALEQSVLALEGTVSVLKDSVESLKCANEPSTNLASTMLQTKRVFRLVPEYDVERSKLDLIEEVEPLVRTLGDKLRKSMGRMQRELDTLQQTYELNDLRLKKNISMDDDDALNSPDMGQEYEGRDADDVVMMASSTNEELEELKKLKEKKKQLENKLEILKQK

Dad2 [1] = target: T5, Dad2 (budding yeast, UniProt P36162 1-133); assay: cross-linking; BS3, Dam1 complex at 0.05 mg/ml in solution; cross-linked species (approx. 110, 220 and 440 kDa) separated by SDS-PAGE, bands cut out, in-gel trypsin digestion, mass spectrometry; conditions: both partners purified
T5 construct: Dad2, subunit of the budding yeast Dam1 complex; Subunit inside the recombinant 10-subunit complex; source: expressed and purified as part of the Dam1 complex as described [3]
T5 sequence (looked up): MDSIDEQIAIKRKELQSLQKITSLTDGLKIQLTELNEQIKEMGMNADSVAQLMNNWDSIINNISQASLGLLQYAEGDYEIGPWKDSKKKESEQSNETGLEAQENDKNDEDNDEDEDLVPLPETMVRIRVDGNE

Dad2 [2] = target: T5, Dad2; assay: affinity purification with mass spectrometry; mutant Dam1 complexes purified by the His tag on Hsk3 (Ni-NTA), then Superose 6 size-exclusion chromatography; proteins identified by mass spectrometry; conditions: partners not purified
Dad4 = target: B1; assay: as above; conditions: partners not purified

Measured: binding result

B1
binds: Ask1 | Dam1 | Spc34 | Spc19 | Dad2 [1]

B2: Hsk3 (natural protein, budding yeast, UniProt P69852 1-69, looked up)
chain: MNANKQRQYNQLAHELRELQTNLQETTKQLDIMSKQCNENLVGQLGKVHGSWLIGSYIYYMEQMLGKTQ
notes: Hsk3, subunit of the budding yeast Dam1 complex; Subunit inside the recombinant 10-subunit complex; also called his-tagged Hsk3; source: expressed and purified as part of the Dam1 complex as described [3]; mutant complexes by Ni-NTA and Superose 6
binds: Dam1 | Dad2 [2] | Dad4

Reference: article PMC4821239, “Molecular architecture of the Dam1 complex–microtubule interaction” (Open Biology, 2016)
